Assay [1] has as its target Rat RGMa (rat, UniProt D4A188 170-424). Kind of assay: BIAcore; Ab captured via anti-hIgG Fc, antigen injected. The procedure:
(§1) The potency data correlates with the affinity data (see Table 5). The affinity of h5F9.23 affinity matured Abs towards human RGMa, rat RGMa, and human RGMc were determined by BIAcore analysis (Table 5). Testing Abs were captured to the surface of a CM5 chip via anti-hIgG Fc Ab, and serially diluted antigens were injected. Association and dissociation rates were monitored for 5 and 10 min respectively. Sensorgrams were fitted by global analysis using the BIAevaluation 4.0.1 software for a 1:1 Langmuir binding model. The equilibrium dissociation constants (KD) were calculated from kinetic rate constants (off rate kd and on rate ka): KD=kd/ka.
(In SPR one partner is held on a chip, and binding of the other changes the refractive index at the surface.)

In assay [2] the target is T1, human RGMa (human, UniProt Q96B86 48-422, limits assumed, biotinylated in the indirect ELISA).
T1 construct: also called hRGMa; biotin hRGMa
T1 sequence: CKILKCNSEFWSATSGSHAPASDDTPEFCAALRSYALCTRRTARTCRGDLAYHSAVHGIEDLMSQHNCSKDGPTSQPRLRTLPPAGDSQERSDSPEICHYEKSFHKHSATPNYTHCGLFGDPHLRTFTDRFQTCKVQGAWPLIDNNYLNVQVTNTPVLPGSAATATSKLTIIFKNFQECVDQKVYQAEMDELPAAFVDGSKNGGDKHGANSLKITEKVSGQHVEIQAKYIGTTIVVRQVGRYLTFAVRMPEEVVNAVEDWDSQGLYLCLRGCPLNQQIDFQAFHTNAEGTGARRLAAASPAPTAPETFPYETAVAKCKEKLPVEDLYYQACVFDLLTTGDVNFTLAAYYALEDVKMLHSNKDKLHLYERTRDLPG
Described as above. The procedure:
as §1

Chain of Rat RGMa (D4A188 entry or part of it): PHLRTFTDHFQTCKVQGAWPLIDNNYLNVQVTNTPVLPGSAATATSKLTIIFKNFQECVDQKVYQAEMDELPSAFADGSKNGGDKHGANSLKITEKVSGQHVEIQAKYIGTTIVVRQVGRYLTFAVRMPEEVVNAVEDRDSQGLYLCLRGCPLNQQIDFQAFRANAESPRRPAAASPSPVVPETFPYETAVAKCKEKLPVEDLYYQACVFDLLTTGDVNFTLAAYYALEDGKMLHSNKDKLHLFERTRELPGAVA

B1: humanized antibody 5F9.23 (antibody, V domains shown)
VH: EVQLVESGGGLVQPGGSLRLSCAASGFTFSNYGMNWIRQAPGKGLEWIGMIYYDSSEKHYADSVKGRFTISRDNSKNTLYLQMNSLRAEDTAVYYCAKGTTPDYWGQGTMVTVSS
VL: DVVLTQSPLSLPVTLGQPASISCRSSQSLEYSDGYTFLEWFQQRPGQSPRLLIYEVSNRFSGVPDRFSGSGSGTDFTLKISRVEAEDVGVYYCFQATHDPLTFGQGTKLEIKR
notes: also called h5F9.23; H5F9.23
In assay [1], B1 had a Kd of 2.1 nM, a koff of 0.0017 s⁻¹ and a kon of 830000 M⁻¹ s⁻¹. The molecule further had a kon in assay [2] of 6e+06 M⁻¹ s⁻¹.

The term Kd denotes the free concentration of one partner at which half of the binding sites on the other are occupied at equilibrium, for simple one-to-one binding. A low value points to higher affinity. By koff is commonly meant a measure of how fast the partners let go of each other. The low end stands for a long-lived complex, the high end for a short-lived complex. The kon is the second-order rate constant of association. Lower therefore signals slow association.
